From US6140490, “High affinity nucleic acid ligands of complement system proteins” (NeXstar Pharmaceuticals, Inc.)

Experiments:
Complement C1q = Complement C1q (Homo sapiens, UniProt P02745;P02746;P02747 P02745:23-245,P02746:28-253,P02747:29-245); assay: filter; MgPBS, 37 C; still binds C1q on immune complexes; competed by SAP, beta-amyloid, CRP and A-chain 14-26 peptide; settings: tags: Quidel; chain copies: 6; label: 32P
Description: Individual cloned DNA was T7 transcribed with α-[^32P]-ATP and the full length [^32P]-2'-NH_2-RNA or 2'-F-RNA was gel-purified (as above). RNA was suspended at approximately 5,000 cpm per 30 µl sample (<10 pM), and aliquots were incubated with various concentrations of C1q, C3 or C5 in MgPBS for 10 minutes at 37° C. Samples were then filtered through nitrocellulose, the filters washed with buffer and dried under an infrared lamp, and counted with addition of scintillation fluid (Ecoscint A, National Diagnostics, Atlanta, Ga.). A background sample of RNA alone was run in parallel. […] Filters were washed and counted.
RNA ligand binding to C1q was also measured in the presence of immune-complexes, which would block the binding of ligands to C1q head-groups. Immune complexes (IC) were formed by mixing 620 µg BSA at equivalence with 1 ml of rabbit anti-BSA (Sigma, St. Louis, Mo.) plus PEG 8000 added to 1% final concentration, and then the samples were incubated overnight at 4° C. The IC were pelleted by microfugation at 12,000 rpm for 10 minutes, washed five times with PBS, and suspended in 1 ml of MgPBS. […] Samples were incubated for 30 minutes at room temperature, microfuged, and the pellets and supernatants counted.

Complement C5 = Complement C5 (Homo sapiens, UniProt P01031;P01031 P01031:19-673,P01031:678-1676); assay: minimal structure from boundary analysis; called 38mer in text; settings: tags: Quidel
Description: A secondary structure for an inhibitory C5 Nucleic Acid Ligand as determined by current art (Green et al. (1995) Chem & Biol. 2:683) is shown in FIG. 3 (SEQ ID NO:75). The smallest structure which would bind C5 is determined by: a) radiolabeling the C5 Nucleic Acid Ligand at both the 3' and the 5' end; b) treating the labeled Nucleic Acid Ligand by partial base-hydrolyzed to split a portion of the bonds between nucleotides; c) incubating the partially hydrolyzed Nucleic Acid Ligand with C5 protein and then eluting the bound Nucleic Acid Ligand; and d) analyzing the eluted Nucleic Acid Ligand on gels. In this procedure, the Nucleic Acid Ligand initially binds to C5 as bases are removed from the Nucleic Acid Ligand. When an essential base is removed, the Nucleic Acid Ligand is no longer able to bind. This first essential base determines the boundary of the minimal Nucleic Acid Ligand structure. For a human C5 Nucleic Acid Ligand the smallest binding structure is believed to comprise the sequence with proposed base-pairing pattern shown in FIG. 3.

Complement C1q, sequence (P02745 23-245, chain 1 of 3): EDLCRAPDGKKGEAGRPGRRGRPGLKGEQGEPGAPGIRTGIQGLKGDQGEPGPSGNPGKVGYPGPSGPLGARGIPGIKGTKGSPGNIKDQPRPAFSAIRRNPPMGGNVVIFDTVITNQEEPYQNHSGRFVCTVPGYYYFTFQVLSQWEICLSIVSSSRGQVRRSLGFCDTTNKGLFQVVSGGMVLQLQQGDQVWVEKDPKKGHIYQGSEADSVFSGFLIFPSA
Complement C1q, sequence (P02746 28-253, chain 2 of 3): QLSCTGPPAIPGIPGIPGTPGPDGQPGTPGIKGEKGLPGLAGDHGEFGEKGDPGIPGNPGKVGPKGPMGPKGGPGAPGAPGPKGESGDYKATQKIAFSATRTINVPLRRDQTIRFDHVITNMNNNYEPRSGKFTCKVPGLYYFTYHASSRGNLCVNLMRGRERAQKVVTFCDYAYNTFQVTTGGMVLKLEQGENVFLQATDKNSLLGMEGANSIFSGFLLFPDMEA
Complement C1q, sequence (P02747 29-245, chain 3 of 3): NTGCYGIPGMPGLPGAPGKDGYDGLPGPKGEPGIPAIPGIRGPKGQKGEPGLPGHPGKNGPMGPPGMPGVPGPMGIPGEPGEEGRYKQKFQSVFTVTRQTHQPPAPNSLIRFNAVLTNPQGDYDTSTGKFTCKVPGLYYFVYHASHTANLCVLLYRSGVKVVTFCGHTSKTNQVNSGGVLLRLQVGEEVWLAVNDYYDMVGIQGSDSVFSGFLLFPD
Complement C5, sequence (P01031 19-673, chain 1 of 2): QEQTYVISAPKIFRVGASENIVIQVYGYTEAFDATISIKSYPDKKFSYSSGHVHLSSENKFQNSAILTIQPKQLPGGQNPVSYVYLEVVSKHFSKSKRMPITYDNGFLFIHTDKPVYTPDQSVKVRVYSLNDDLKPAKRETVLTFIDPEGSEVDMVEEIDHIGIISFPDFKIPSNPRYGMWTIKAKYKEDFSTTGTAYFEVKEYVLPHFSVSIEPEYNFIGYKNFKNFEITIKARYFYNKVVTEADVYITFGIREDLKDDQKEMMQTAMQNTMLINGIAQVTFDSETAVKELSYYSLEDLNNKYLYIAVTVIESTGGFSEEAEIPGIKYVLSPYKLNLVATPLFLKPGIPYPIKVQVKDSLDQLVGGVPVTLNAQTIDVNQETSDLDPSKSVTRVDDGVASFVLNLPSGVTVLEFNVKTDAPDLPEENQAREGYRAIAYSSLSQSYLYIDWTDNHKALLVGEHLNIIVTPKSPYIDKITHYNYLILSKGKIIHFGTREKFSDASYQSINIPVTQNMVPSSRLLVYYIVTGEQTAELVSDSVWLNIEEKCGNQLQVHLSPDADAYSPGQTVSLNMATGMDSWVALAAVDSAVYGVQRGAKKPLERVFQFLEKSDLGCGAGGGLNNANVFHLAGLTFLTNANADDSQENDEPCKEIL
Complement C5, sequence (P01031 678-1676, chain 2 of 2): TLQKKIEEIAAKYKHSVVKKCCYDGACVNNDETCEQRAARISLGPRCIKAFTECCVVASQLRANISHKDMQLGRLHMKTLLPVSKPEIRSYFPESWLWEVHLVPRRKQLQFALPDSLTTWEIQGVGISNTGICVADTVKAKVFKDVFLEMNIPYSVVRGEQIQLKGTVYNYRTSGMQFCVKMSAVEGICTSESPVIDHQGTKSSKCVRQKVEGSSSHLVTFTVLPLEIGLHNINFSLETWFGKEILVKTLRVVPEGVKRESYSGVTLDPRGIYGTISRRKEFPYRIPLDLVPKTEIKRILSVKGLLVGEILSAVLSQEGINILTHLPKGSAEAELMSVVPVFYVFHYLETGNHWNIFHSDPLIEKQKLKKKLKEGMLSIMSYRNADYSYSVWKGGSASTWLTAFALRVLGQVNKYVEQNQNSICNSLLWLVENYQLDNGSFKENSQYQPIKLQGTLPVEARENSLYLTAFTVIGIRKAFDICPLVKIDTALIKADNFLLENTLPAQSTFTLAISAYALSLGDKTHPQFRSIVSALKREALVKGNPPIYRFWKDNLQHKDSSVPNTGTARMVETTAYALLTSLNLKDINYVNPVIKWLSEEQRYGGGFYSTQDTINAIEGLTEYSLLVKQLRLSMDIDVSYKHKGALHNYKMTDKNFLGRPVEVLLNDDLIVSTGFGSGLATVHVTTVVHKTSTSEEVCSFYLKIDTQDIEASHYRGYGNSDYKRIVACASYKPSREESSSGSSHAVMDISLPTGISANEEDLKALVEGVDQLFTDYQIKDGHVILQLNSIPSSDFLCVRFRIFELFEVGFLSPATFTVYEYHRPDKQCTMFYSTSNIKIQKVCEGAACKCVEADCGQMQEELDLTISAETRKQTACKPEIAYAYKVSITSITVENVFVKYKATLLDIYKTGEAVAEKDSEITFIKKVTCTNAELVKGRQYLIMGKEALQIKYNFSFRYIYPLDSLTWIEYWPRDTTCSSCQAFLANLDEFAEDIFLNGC

B1: clone 50 (ssRNA)
RNA: GGGAGGACGAUGCGGGUGGAGUGGAGGUAUAACGGCCGGUAGCGCAUCCCACUCGGGUCUGCGGUAGACGACUCGCCCGA
modifications: 2'-NH2 C and U
B1 was tested. Which Kd (Complement C1q) did it give?
Its Kd is 0.979 nM.

Does GACGAUGCGGUCUCAUGCGUCGAGUGUGAGUUUACCUUCGUC (ssRNA, 2'-F C and U) [truncated C5 ligand (FIG. 3)] bind (Complement C5)?
Result: binds
